{
  "source": "paper PMC7111185",
  "about": "(Biochemical and Biophysical Research Communications, 2004)",
  "target": "30a-HR1 (His-tagged heptad repeat 1 region of SARS-CoV spike protein, amino acids 898-1005) (SARS-CoV, UniProt P59594 898-1005)",
  "experiment": "pull-down",
  "data": [
    {"binder": "GDISGINASVVNIQKEIDRLNEVAKNLNESLIDLQELG (domain or fragment)", "note": "[GST-HR2-38 (GST fusion of SARS-CoV spike HR2, amino acids 1149-1186)]", "values": [
      {"measurement": "binding result", "result": "binds"}
    ]}
  ]
}
